Test results published in the supplement of paper PMC9170038.

Tested on: MS2 coat protein
Assay: apparent KD of MS2 coat protein; designed switch direction (-1 OFF switch, 1 ON switch): 1; higher = weaker reporter binding
How it was run: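 Designed RNA switches with common flanks were made on Illumina chips by stalled E. coli RNA polymerase. Titration with SNAP-549-labelled MS2 coat protein doubled from 0.7 or 1.5 nM up to 3 µM. Apparent KD is each design's median over clusters after curve-fitting normalised fluorescence.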

[1] = input ligand: microRNA oligo, concentration not stated

Sequence | apparent KD of MS2 coat protein (input ligand: FMN 200 uM) [nM] | apparent KD of MS2 coat protein [1] [nM] | apparent KD of MS2 coat protein (input ligand: none) [nM] | apparent KD of MS2 coat protein (Eterna round: R95, input ligand: FMN 200 uM) [nM] | apparent KD of MS2 coat protein (Eterna round: R95, input ligand: microRNA oligo, concentration not stated) [nM] | apparent KD of MS2 coat protein (Eterna round: R95, input ligand: none) [nM]
GCGAGCGUACUUGCAGACAUGAGGAUCACCCAUGUAACUGGACAGGAUAUGGUACCGUUUCGGUACCAGAAGGGUUCACUCAUG [JL SSNG3 3.58] (Eterna round: R96, puzzle: Same State NG 3) | 388 | 119 | 176 |  |  | 
GCGAGCGUACUUGCUACAUGAGGAUCACCCAUGUCUAUUGGACAGGAUAUGGUACCGUUUCGGUACCAGAAGGGUUCAUCAUGU [JL SSNG3 3.72] (Eterna round: R96, puzzle: Same State NG 3) | 400 | 46.2 | 34.6 |  |  | 
GCGAGCGUACUUGCUACAUGAGGAUCACCCAUGUUUCAUGGACAGGAUAUGGUACCGUUUCGGUACCAGAAGGGUUCACAUGUA [JL SSNG3 3.80] (Eterna round: R96, puzzle: Same State NG 3) | 155 | 98.8 | 315 |  |  | 
GCGAUAUGAUGUUACAUGAGGAUCACCCAUGUAGCGACAGCUAAGGAUAUUGGAAAGGGAGGAGACGAGAAGGUAGGGUCACGC [AK SSNG3-V2-24] (Eterna round: R96, puzzle: Same State NG 3) | 22.9 | 15.8 | 19.7 |  |  | 
GCGAUAUGAUGUUACAUGAGGAUCACCCAUGUAGCGAUAGCUAAGGAUAUUGGAAAGGGAGGAGACGAGAAGGUAGGAUCACGC [AK SSNG3-V2-23.1] (Eterna round: R96, puzzle: Same State NG 3) | 44.9 | 15.7 | 36.1 |  |  | 
GCGCACGAUCACAGUAACAUGAGGAUCACCCAUGUGUUACCGGAGGAUAUGCAAGCCCAUGCAGCGCAGAAGGCCGGGAACGUA [Eternabot solution 24] (Eterna round: R96, puzzle: Same State NG 3) | 151 | 131 | 147 |  |  | 
GCGCUCCAAGGAGCUGCGACAUGAGGAUCACCCAUGUAAUCACAGGAUAUGCGAUUCCGAAUUUUGCAGAAGGGUGAUAAGAAC [Asorila] (Eterna round: R96, puzzle: Same State NG 3) | 482 | 491 | 241 |  |  | 
GCGGAAACUCACAUGAGGAUCACCCAUGUUCCGGAAACGGCACAGGAUAUCUGUCCGAAAAGGUCAGAGAAGGGUGUAAUCCGC [Fiskers NG3ss - 90] (Eterna round: R96, puzzle: Same State NG 3) | 572 | 101 | 79.6 |  |  | 
GCGGAACAUGAGGAUCACCCAUGUGGAGGGUGUAAAGGAUAUUAUAGAGAGAAGGUAGGGUAAGAAGGUUGCUUGG [JR_SS1_Sub089] (puzzle: Same State 1) |  |  |  | 202 | 96 | 541
GCGGACUUCACAUGAGGAUCACCCAUGUUGCGGAGACGCAAUGAGGAUAUCGAUGGGUUUCCCGUCGAGAAGGCAUAAAUCCGC [JL SSNG3 3.93 mod 5] (Eterna round: R96, puzzle: Same State NG 3) | 25.2 | 30 | 49.8 |  |  | 
GCUACCAAAGAAGCCAACAUGAGGAUCACCCAUGUAUGUUGGCAGGAUAUCGUUUGCAAAGCGAACGAGAAGGGCUAAGGUAGC [Mat - Same State NG 3 - JL Mod - D89] (Eterna round: R96, puzzle: Same State NG 3) | 197 | 116 | 231 |  |  | 
GCUACCAAAGAAGCCAACAUGAGGAUCACCCAUGUAUGUUGGUAGGAUAUCGAUUGCAAAGCGAUCGAGAAGGGCUAAGGUAGC [Mat - Same State NG 3 - JL Mod - D84] (Eterna round: R96, puzzle: Same State NG 3) | 132 | 93.1 | 95.5 |  |  | 
GCUACCAAAGAAGCCAACAUGAGGAUCACCCAUGUAUGUUGGUAGGAUAUCGUAUGCAAAGCAUACGAGAAGGGCUAAGGUAGC [Mat - Same State NG 3 - JL Mod - D78] (Eterna round: R96, puzzle: Same State NG 3) |  | 86.9 |  |  |  | 
GCUACCAAUGAAGCCAACAUGAGGAUCACCCAUGUAUGUUGGUAGGAUAUCGAUUGCAAAGCGAUCGAGAAGGGCUAAGGUAGC [Mat - Same State NG 3 - JL Mod - D82] (Eterna round: R96, puzzle: Same State NG 3) | 51.9 | 59.6 | 54.5 |  |  | 
GCUACCAAUGAAGCCAACAUGAGGAUCACCCAUGUAUGUUGGUAGGAUAUCGUUUGCUUUGCAAACGAGAAGGGCUAAGGUAGC [JL SSNG3 1.26] (Eterna round: R96, puzzle: Same State NG 3) | 42.2 | 39.2 | 42.6 |  |  | 
GCUAGAAAUAAAGCCAACAUGAGGAUCACCCAUGUAUGUUGGUAGGAUAUCGUUUGCAAAGCAAACGAGAAGGGCUAAACUAGC [Mat - Same State NG 3 - JL Mod - D17] (Eterna round: R96, puzzle: Same State NG 3) | 61.6 | 68.8 | 61 |  |  | 
GCUAGAAAUAAUGCCAACAUGAGGAUCACCCAUGUAUGUUGGCAGGAUAUCGUUUGCAAAGCAAACGAGAAGGGCUAAACUAGC [Mat - Same State NG 3 - JL Mod - D8] (Eterna round: R96, puzzle: Same State NG 3) | 236 | 237 | 338 |  |  | 
GCUAGAAUAAAUGCCUACAUGAGGAUCACCCAUGUAUGUAGGCAGGAUAUCGUAUGCAAAGCAUACGAGAAGGGCCUUACUAGC [Mat - Same State NG 3 - JL Mod - D30] (Eterna round: R96, puzzle: Same State NG 3) | 22.7 | 55.4 | 85.2 |  |  | 
GCUAGAAUUAAAGCCAACAUGAGGAUCACCCAUGUAUGUUGGUAGGAUAUCGUUUGCUUUGCAAACGAGAAGGGCUAAUCUAGC [JL SSNG3 1.22] (Eterna round: R96, puzzle: Same State NG 3) | 62.4 | 59.8 | 69.2 |  |  | 
GCUAGGAUAUGACGAGGAUCACCCGUUAGAAGGAGCGAAAGCUAGGAUAUGACGAGGAUCACCCGUUAGAAGGAGCUGUCCUCU [pwkr ssNG3 DX 2xF5 +2xFMN.11] (Eterna round: R96, puzzle: Same State NG 3) | 200 | 80.1 | 111 |  |  | 
GCUAGGAUUAAAGCCAACAUGAGGAUCACCCAUGUAUGUUGGUAGGAUAUCGUUUGCUUUGCAAACGAGAAGGGCUAACCUAGC [JL SSNG3 1.23] (Eterna round: R96, puzzle: Same State NG 3) | 70.6 | 57.8 | 62.1 |  |  | 
GCUCCAAACACAGGAUAUGGAAUCUGAUUCAUGCGAGUGACAUGAGGAUCACCCAUGUCCGGCAGCCAGAAGGGUGGGAAACAU [Eternabot solution 27] (Eterna round: R96, puzzle: Same State NG 2) | 184 | 151 | 201 |  |  | 
GCUCGACGUAUUGUCUACAUGAGGAUCACCCAUGUAGGUGCGGAGGAUAUCUACGUGUUUCAUGUAGAGAAGGUCGUGUCGAGC [SameState NG3 #90] (Eterna round: R96, puzzle: Same State NG 3) | 56 | 155 | 177 |  |  | 
GCUCGACGUAUUGUCUACAUGAGGAUCACCCAUGUAGGUGCGGAGGAUAUUUACGUGUCUCAUGUAGAGAAGGCCGUGUCGAGC [SameState NG3 #96] (Eterna round: R96, puzzle: Same State NG 3) | 37.1 | 216 | 329 |  |  | 
GCUCGACGUAUUGUCUACAUGAGGAUCACCCAUGUAGGUGCGGAGGAUAUUUACGUGUUUCAUGUAGAGAAGGUCGUGUCGAGC [SameState NG3 #94] (Eterna round: R96, puzzle: Same State NG 3) | 27.8 | 166 | 185 |  |  | 
GCUCGAUGAAAGUCCUACAUGAGGAUCACCCAUGUACGUGGGCAGGAUAUCUACAUGCAGAAUGUAGAGAAGGGCCCGUCGAGC [SameState NG3 #58] (Eterna round: R96, puzzle: Same State NG 3) | 15.1 | 16.5 | 17.4 |  |  | 
GCUCGAUGAAAGUCCUACAUGAGGAUCACCCAUGUACGUGGGCAGGAUAUUUACAUGCAGAGUGUAGAGAAGGGCCCAUCGAGC [SameState NG3 #61] (Eterna round: R96, puzzle: Same State NG 3) | 18.3 | 50.2 | 76.4 |  |  | 
GCUCGAUGAGCGGUUUACAUGAGGAUCACCCAUGUACGUGGGCAGGAUAUUUACGUGCUUUGUGUAGAGAAGGGCCCAUCGAGC [SameState NG3 #73] (Eterna round: R96, puzzle: Same State NG 3) | 39.8 | 191 | 405 |  |  | 
GCUCGAUGAGCGUUCUACAUGAGGAUCACCCAUGUUCGUGGGCAGGAUAUUUACGUGCAGAGUGUAGAGAAGGGCCCAUCGAGC [SameState NG3 #67] (Eterna round: R96, puzzle: Same State NG 3) | 1260 | 270 | 196 |  |  | 
